Laboratory results reported in US20220267421A1 (INVOX PHARMA, published 2022).

T1: human EpCAM-hFc (in-house production) (human, UniProt P16422 24-265, limits assumed)
T1 construct: not shown: human Fc
T1 sequence (looked up): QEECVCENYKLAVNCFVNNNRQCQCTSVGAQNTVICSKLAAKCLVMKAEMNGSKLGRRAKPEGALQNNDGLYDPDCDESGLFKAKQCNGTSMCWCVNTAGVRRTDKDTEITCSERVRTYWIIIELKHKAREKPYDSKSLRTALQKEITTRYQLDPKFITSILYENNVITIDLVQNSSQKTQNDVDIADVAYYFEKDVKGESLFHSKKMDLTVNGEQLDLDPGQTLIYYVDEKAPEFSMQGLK

T2: human CEACAM-5-His-Fc (Sino Biological, 1077-H03H) (human, UniProt P06731 35-685)
T2 construct: not shown: His tag and Fc
T2 sequence (looked up): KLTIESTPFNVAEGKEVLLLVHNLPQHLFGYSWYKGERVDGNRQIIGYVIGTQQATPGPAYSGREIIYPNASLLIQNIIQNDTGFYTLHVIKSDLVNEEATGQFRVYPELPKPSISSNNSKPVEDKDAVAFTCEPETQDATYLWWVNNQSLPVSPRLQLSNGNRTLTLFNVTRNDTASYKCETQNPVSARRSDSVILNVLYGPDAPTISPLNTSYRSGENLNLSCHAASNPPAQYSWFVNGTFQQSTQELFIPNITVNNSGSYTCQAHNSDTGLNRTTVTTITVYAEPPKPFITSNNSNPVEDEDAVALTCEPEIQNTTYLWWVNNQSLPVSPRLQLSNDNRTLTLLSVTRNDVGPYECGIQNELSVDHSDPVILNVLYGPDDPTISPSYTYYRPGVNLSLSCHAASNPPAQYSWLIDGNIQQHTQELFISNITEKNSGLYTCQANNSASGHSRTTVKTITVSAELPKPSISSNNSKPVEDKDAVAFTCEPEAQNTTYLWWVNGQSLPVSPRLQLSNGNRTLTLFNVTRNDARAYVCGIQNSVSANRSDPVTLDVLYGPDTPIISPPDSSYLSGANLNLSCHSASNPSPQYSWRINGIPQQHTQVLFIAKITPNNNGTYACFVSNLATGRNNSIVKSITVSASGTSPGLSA

T3: human E-Cadherin (R&D systems, 8505-EC) (human, UniProt P12830 155-707)
T3 sequence (looked up): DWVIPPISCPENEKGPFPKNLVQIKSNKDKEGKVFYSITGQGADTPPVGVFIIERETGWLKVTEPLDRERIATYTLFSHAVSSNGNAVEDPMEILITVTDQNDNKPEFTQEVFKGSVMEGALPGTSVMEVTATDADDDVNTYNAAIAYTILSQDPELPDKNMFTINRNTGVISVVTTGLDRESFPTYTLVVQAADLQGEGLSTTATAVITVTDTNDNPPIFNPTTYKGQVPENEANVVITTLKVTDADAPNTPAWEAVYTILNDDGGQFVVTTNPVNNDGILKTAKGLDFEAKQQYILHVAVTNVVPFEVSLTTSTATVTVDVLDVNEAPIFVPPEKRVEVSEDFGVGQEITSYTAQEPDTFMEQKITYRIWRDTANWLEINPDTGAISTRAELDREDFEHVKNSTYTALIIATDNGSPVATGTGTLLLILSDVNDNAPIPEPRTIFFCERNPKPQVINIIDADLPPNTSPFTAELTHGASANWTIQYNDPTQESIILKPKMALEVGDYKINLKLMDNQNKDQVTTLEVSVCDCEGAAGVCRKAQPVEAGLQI


Tests used:
Test in all cases: ELISA, antigen coated at 1 ug/ml
[1] = target: T1, human EpCAM-hFc (in-house production)
Description: (§1) A similar protocol was used as described in section 1.2.1 in which maxisorp plates were coated with 1 μg/ml of recombinant human MSLN-His-Avi, human CEACAM-5-His-Fc (Sino Biological, 1077-H03H), human E-Cadherin (R&D systems, 8505-EC), human Thrombomodulin (Peprotech, 100-58) or human EpCAM-hFc (in-house production). Binding of the anti-MSLN mAbs, tested at a concentration range of 0.02 to 1000 nM (3-fold dilutions) was detected using anti-human Fab-HRP (Sigma, A0293). Positive controls for the respective molecules included human EpCAM antibody (clone 2G8 from patent no. U.S. Pat. No. 8,236,308 B2) CEACAM-5 antibody (clone hMN15 from patent no. U.S. Pat. No. 8,771,690 B2), human E-Cadherin antibody, mouse IgG2b clone 180215 (R&D systems, MAB1838), human Thrombomodulin antibody, mouse IgG1, clone 501733 (R&D systems, MAB3947). The latter two were detected using goat anti mouse Fc-HRP (Sigma, A9309) as secondary mAb.

[2] = target: T2, human CEACAM-5-His-Fc (Sino Biological, …)
Description: as §1

[3] = target: T3, human E-Cadherin (R&D systems, 8505-EC)
Description: as §1

[4] = target: human Thrombomodulin (Peprotech, 100-58) (human, UniProt P07204 19-515)
Description: as §1

human Thrombomodulin (Peprotech, 100-58), sequence (P07204 19-515 limits assumed): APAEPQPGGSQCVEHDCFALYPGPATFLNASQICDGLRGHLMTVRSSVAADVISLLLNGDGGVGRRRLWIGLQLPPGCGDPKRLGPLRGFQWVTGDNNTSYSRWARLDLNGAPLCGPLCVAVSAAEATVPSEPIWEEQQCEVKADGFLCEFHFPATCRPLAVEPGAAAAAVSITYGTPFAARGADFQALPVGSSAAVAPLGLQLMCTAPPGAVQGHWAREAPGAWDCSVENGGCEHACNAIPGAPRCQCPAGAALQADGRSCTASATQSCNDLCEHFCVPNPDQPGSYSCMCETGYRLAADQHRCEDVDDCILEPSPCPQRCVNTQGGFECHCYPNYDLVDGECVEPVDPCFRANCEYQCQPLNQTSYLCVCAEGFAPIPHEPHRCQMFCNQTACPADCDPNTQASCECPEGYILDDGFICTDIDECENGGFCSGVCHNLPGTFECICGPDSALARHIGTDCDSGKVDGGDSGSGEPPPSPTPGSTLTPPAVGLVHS

binding result [1]	binding result [2]	binding result [3]	binding result [4]	Binder
no binding (tested: 1000 nM)	no binding (tested: 1000 nM)	no binding (tested: 1000 nM)	no binding (tested: 1000 nM)	G1-AA/FS28-024 (antibody, human IgG1, kappa, L234A L235A, V domains shown, Complete human IgG1 with LALA mutation; also called FS28-024 mAb (in G1-AA format)) VH: EVQLLESGGGLVQPGGSLRLSCAASGFTLSYSSMSWVRQAPGKGLEWVSFITPSTGYTHYADSVKGRFTISRDNSKNTLYLQMNSLRAEDTAVYYCARRALTFDYWGQGTLVTVSS VL: EIVLTQSPGTLSLSPGERATLSCRASQSVSSSYLAWYQQKPGQAPRLLIYGASSRATGIPDRFSGSGSGTDFTLTISRLEPEDFAVYYCQQASSYPLTFGQGTKVEIKR
no binding (tested: 1000 nM)	no binding (tested: 1000 nM)	no binding (tested: 1000 nM)	no binding (tested: 1000 nM)	G1-AA/FS28-026 (antibody, human IgG1, kappa, L234A L235A, V domains shown, IgG1 LALA; also called FS28-026 mAb (in G1-AA format)) VH: EVQLLESGGGLVQPGGSLRLSCAASGFTFSNYAMTWVRQAPGKGLEWVSSITPYYSKTDYADSVKGRFTISRDNSKNTLYLQMNSLRAEDTAVYYCARNWYRFDYWGQGTLVTVSS VL: not shown
no binding (tested: 1000 nM)	no binding (tested: 1000 nM)	no binding (tested: 1000 nM)	no binding (tested: 1000 nM)	G1-AA/FS28-091 (antibody, human IgG1, kappa, L234A L235A, V domains shown, IgG1 LALA; also called FS28-091 mAb (in G1-AA format)) VH: EVQLLESGGGLVQPGGSLRLSCAASGFTFTNYAMSWVRQAPGKGLEWVSSIKPYDGNTYYADSVKGRFTISRDNSKNTLYLQMNSLRAEDTAVYYCARNRWVFDYWGQGTLVTVSS VL: not shown
